{"source": "patent US12357692B2", "about": "“Method of treating influenza A” (MEDIMMUNE, LLC, priority 2016, dated 2025)", "key": {"[1]": {"assay": "Anti-drug antibody (ADA) responses in serum, electrochemiluminescent solution-phase bridging immunoassay", "type": "in vivo, human", "details": "Days 15, 29 and 101 after single IV dose", "excerpt": "Blood samples were collected at Days 15(±1), 29(±2) and 101(±5) to evaluate anti-drug antibody (ADA) responses to MEDI8852 in serum using an electrochemiluminescent, solution-phase, bridging immunoassay. All ADA results were negative (i.e., no anti-drug antibody was found)."}, "[2]": {"details": "in vivo"}, "[3]": {"tested_on": "influenza A virus infection", "details": "human, in vivo, iv"}}}
{"substance": "MEDI8852: human IgG1 kappa monoclonal antibody that binds the conserved stalk region of influenza HA protein; VH SEQ ID NO:2, VL SEQ ID NO:7", "values": [{"measurement": "anti-drug antibody (ADA) results", "setting": "[1]", "value": "negative"}, {"measurement": "half-life following a single IV dose", "setting": "[2]; human, iv", "value": "19.4 to 22.6", "unit": "days"}, {"measurement": "PK dose linearity", "setting": "[2]", "value": "dose-linear"}, {"measurement": "efficacy", "setting": "[3]", "value": "better than oseltamivir alone"}]}
